EC20 (in vitro cytotoxic activity), EC50 (in vitro cytotoxic activity) and EC90 (concentration found to produce 90% cytotoxic activity) data for one molecule are collected here from patent publication US20220411516A1.

This experiment addresses EGFRvIII (Epidermal Growth Factor Receptor Variant III) (human) (UniProt P00533). The experiment can be described thus: cell-based or functional assay.

B1: AMG 596 (bispecific antibody, part only; not given: CD3-binding domain; linkers, part only)
chain, part: QVQLVESGGGVVQSGRSLRLSCAASGFTFRNYGMHWVRQAPGKCLEWVAVIWYDGSDKYYADSVRGRFTISRDNSKNTLYLQMNSLRAEDTAVYYCARDGYDILTGNPRDFDYWGQGTLVTVSSDTVMTQTPLSSHVTLGQPASISCRSSQSLVHSDGNTYLSWLQQRPGQPPRLLIYRISRRFSGVPDRFSGSGAGTDFTLEISRVEAEDVGVYYCMQSTHVPRTFGCGTKVEIK
Take B1: the EC20 (in vitro cytotoxic activity) came to 0.07 ng/mL, the EC50 (in vitro cytotoxic activity) worked out at 0.41 ng/mL and the EC90 (concentration found to produce 90% cytotoxic activity) worked out at 1.8 ng/mL.
